The supplement of paper PMC9170038

System: MS2 coat protein
Assay: apparent KD of MS2 coat protein; higher = weaker reporter binding
Settings: Eterna round: R107
Outline: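 Designed RNA switches, transcribed on-chip from Illumina sequencing clusters, were titrated with SNAP-549-labelled MS2 coat protein from 0.7 or 1.5 nM to 3 µM in twofold steps. The solution was 100 mM Tris-HCl pH 7.5, 80 mM KCl, 4 mM MgCl2, with constant ligand or without it. Apparent KD is the median over each design's normalised cluster binding-curve fits.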

[1] = input ligand: theophylline 20 uM
[2] = input ligand: theophylline 2 mM
[3] = input ligand: tryptophan 2.4 mM

Sequence | apparent KD of MS2 coat protein (input ligand: arginine 13.2 mM) | apparent KD of MS2 coat protein [1] | apparent KD of MS2 coat protein [2] | apparent KD of MS2 coat protein (input ligand: none) | apparent KD of MS2 coat protein [3]
UUAUAUACUACGGCCGCCACUGAACAUGAGGAUCACCCAUGUAAUGUUCAGACGUCUUUAGACGACAGGACCGGGUAGAAUUAAA [Tryptophan B 1] | 79.5 nM | 114 nM | 122 nM | – | –
GCACAAGAUGGAAGGAGCGCUGGUAAAGGUCACAUGAGGAUCACCCAUGUGCUCCUUGCCGAGCAGGUAGGUCGCCAUCUUGUGC [SSAB NP+V+V2 #3] | 14.1 nM | 16.4 nM | 13.3 nM | 11.7 nM | 11.7 nM
ACGAUAGGACUUGAGGAUCACCCAAGUGAUACCAGCCUGGAAACAGGCCCUUGGCAGCACUAAUACUCCAAUAACCUAUCGAAUA [TheoAX 14 #MicroSwitchBubble #AlternativeMS2] | 78.6 nM | 228 nM | 387 nM | 232 nM | 395 nM
ACGGGCAUGGCGGCCGCCACUGGUUGGCGUGCGGAUGAGGGAACAUGAGGAUCACCCAUGUUGGUUAGGACCGGGCUGGCGUCGA [kkymullin] | 12.6 nM | 49.8 nM | 16 nM | 15.4 nM | 18 nM
UCUGCCGCGGCUCCGAUCCUCCUGUAGUUCCGAGGACCGGUACGGCCGCCACUCGUAGCACAUGAGGAUCACCCAUGUCUUGCGG [Tiqurabira] | 12.1 nM | 17.5 nM | 13 nM | – | –
UGUCGGCGAAAGUUGGCGUGUCUUGCUGGUCGAGGACCGGUACGGCCGCCACUCGAUCCUUCGCACAUGAGGAUCACCCAUGUUG [SS Tryp A #24] | 25.8 nM | 49.1 nM | 34.8 nM | – | –
UAAAACAUGAGGAUCACCCAUGUAAAAGAUACCAGAGUGAUGAUCCUCCCUUGGCAGCUUAACGCUGAUUGAUUACAAUCAGCGA [Mat - Same State Theophlline A - Mod of Eli - D21] | 75.4 nM | 124 nM | – | – | 53.3 nM
CGUAUUACGAAAGUAGUACGUAGUUCGAGUCGAGGACCGGUACGGCCGCCACUCGGACAUGAGGAUCACCCAUGUAGCGAAAGCU [Tryptophan A 23] | 68.2 nM | 156 nM | 161 nM | 125 nM | 72.4 nM
AUAAGUAAUGUUUCGUGUAUUAUUACAGAUACCAGACUAUACGUUGUCCCUUGGCAGCUGGAUUACAUGAGGAUCACCCAUGUUG [JR_ExcTheophyA_Sub002] | 16 nM | 19.3 nM | – | – | 17.1 nM
ACAUGAGGAUCACCCAUGUAGCGUAGGGAAGGAGCGGAAUAAAGUCCAGGUAGGUCGCCCAUAUGAUGAUCUCACUUAUUAUCGA [#12 Same State - Arginine A] | 27.7 nM | 42.5 nM | 42.2 nM | 31 nM | 30.5 nM
AGCAACAAGUCGGCCGCCACUCUUUUAACAUGAGGAUCACCCAUGUUUAUAUCAUGGUUUUAAUAGAGGACCGGGACAGUUGCAU [JR_ExcTryptoB_Sub005] | 26.3 nM | 37 nM | 43.2 nM | – | –
GCACGGUAGUCGGCCGCCACUGAAACAUGUGUCUACAUGAGGAUCACCCAUGUGGGUGUGUUUUGUAGGACCGGGACAAGACCCG [#11 Same State - Tryptophan B] | 16.8 nM | 28.1 nM | 18 nM | 19 nM | 17.2 nM
UAGCGAUAAUCUGAUACCAGACGUGUACUCUCCUCAGACAUGAGCAUCAGCCAUGUAUGCGUCCCUUGGCAGCAGAGAUAGGAGA [Theo B Ex t5b] | 16.9 nM | 24.5 nM | 36.7 nM | 16.1 nM | 16.9 nM
AUGCAGGGCAACAGCCACUGUCACGGUGAUACCAGUACCCGUGCGUACCCUUGGCAGCAUCGUGGUACAUGAGGAUCACCCAUGU [Enatleceed] | 36.8 nM | 503 nM | – | – | 546 nM
ACAUGAGGAUCACCCAUGUUCCUCGCCGAUACCAGUGAAGAAGUACGCCCUUGGCAGCGGAAAGAGUAUUUUGGAGAUGAGGUAC [6.Y] | 57 nM | 94.3 nM | – | – | 88.3 nM
AUUCAUGAAAACAUGACAUGAGGAUCACUCCGAGGACCGGUACGGCCGCCACUCGCGAGGAGGCACAUGAGGAUCACCCAUGUUA [SS Tryp A #2] | 36 nM | 119 nM | 143 nM | – | –
AAUAAUAAGGCGGCCGCCACUACACAUGAGGAUCACCCAUGUCUCGCGGGCUUGCGUUGGGAUUGUAGGACCGGGCCAAUAAUAA [Exclusion - Tryptophan B (Freestyle 11)] | 15.2 nM | 35.7 nM | 30.4 nM | – | –
GCCUAGCAUCGAAGGAGCGGGCAUUACGCGCGAAAGCGCGAUGCACGAGGAUCACCCGUGUCCCAGGUAGGUCGCGAUGCUAGGC [SSAB Alternative Aptamer #4 V+V2] | 153 nM | 368 nM | 527 nM | 508 nM | 343 nM
UGUCCUCAUGCGGCCGCCACUGUCGGCCGCCACUAAACCUGAGGAUCACCCGGGUAGGACCGGGACAGGACCGGGCAUGGGUGCU [#DoubleAptamer 4 #AlternativeMS2] | 47.4 nM | 486 nM | 686 nM | 315 nM | 111 nM

Sequence | apparent KD of MS2 coat protein (input ligand: arginine 13.2 mM) | apparent KD of MS2 coat protein [1] | apparent KD of MS2 coat protein [2] | apparent KD of MS2 coat protein (input ligand: none) | apparent KD of MS2 coat protein [3]
UAAUAAGUACCGGUCCUCAGAUCCUCAUGACGAGGACCGGUACGGCCGCCACUCGAAACAUGAGGAUCACCCAUGUAAUAAUAAC [Brourdmod03] | 23 nM | 77 nM | 45.2 nM | – | –
AGUUUGGACUCGGCCGCCACUCGUGAUGCUUUGGCACAUGAGGAUCACCCAUGUGGUCGGCCUUAGAGGACCGGGAGUACCAGCC [Edesceso] | 82.5 nM | 297 nM | 342 nM | – | –
AAGUGGCACGGAAGGAGCGAGUUUACCUAUUACAUGAGGAUCACCCAUGUGUAUAAUGGGACUCAGGUAGGUCGCCGUUGUCACU [Same State Arginine B GF 25] | 31.5 nM | 49 nM | 44.3 nM | 35.7 nM | 31.6 nM
GGGCCCGGCCGAAAGGCCGGGCCCGCUGAAGGAGCGGGAAAUAACCCAGGUAGGUCGCAGAGAUCCACAUGAGGAUCACCCAUGU [#26 Exclusion - Arginine A] | 38.7 nM | 64.1 nM | 68.1 nM | 26.5 nM | 44.4 nM
AUUUAUAGUUGUGAUACCAGACUUACAUGAGGAUCACCCAUGUUACUUAAAUGUUUUGAUGUCCCUUGGCAGCACUGUUUUUUUA [JR_Nu_ExcTheophyB_Sub029] | 16.1 nM | 22.6 nM | – | – | 16.4 nM
CUGACGUAGGAAGAUAUCUGGAACAAGGAUACCAGUAAACCAACAUACCCUUGGCAGCCUAAAACAUGAGGAUCACCCAUGUAAU [theeternabot_exclusion_MS2_Theo_A_26] | 11.9 nM | 14.2 nM | – | – | 13.7 nM
ACAUGAGGAUCACCCAUGUAGUGGCACGAUACCAGCUGAUCCCGUGGCCCUUGGCAGCGUCCGGUGUGGUGCGCCGGGUUGGAGC [BBBMULLIN] | 38 nM | 77.4 nM | – | – | 48.9 nM
GGUACAUGAGGAUCACCCAUGUAUUAGUGCCGAGGACCGGUACGGCCGCCACUCGCUUCACAUGAGGAUCACCCAUGUGUCACAG [SSTA DOUBLE!!! :-D #13] | 22.4 nM | 38.4 nM | 39.7 nM | – | –
UUUUUUAUUGGGUAUAGAAUAUUAACUGAAGGAGCGUGGUAUUACACAGGUAGGUCGCAGUUUUUACAUGAGGAUCACCCAUGUU [JR_SSArginiA_Sub010] | 36.1 nM | 51.5 nM | 60.1 nM | 38.5 nM | 39 nM
UGUGUCGUCUGAAGGAGCGGCUCUUGAUCCUCGUGGGACAUGAGGAUCACCCAUGUCUCGAGCCAGGUAGGUCGCAGGCGGCACA [#27 Exclusion - Arginine B] | 31.3 nM | 32.6 nM | 23.8 nM | 26 nM | 20.7 nM
ACAUGAGGAUCACCCAUGUUUGAUGUUCCUCGAGGACCGGUACGGCCGCCACUCGAACGAGUGGCGCGCGAGCGCGCGCUCGCGC [aRa] | 11.4 nM | 20.3 nM | 14.8 nM | – | –
GGGAAAGAAUGUGAUACCAGAGAACCGGUCUCCAUCAAUAUACAUGAGGAUCACCCAUGUCUCCCUUGGCAGCACCAUCAUCAAA [Exclusion Theophylline B GF 27] | 21 nM | 28.3 nM | – | – | 22 nM
AGGCUUCGCAUAGGAAAACUAUGUGAAGCCCGAGGACCGGUACGGCCGCCACUCGUCCUCAACAUGAGGAUCACCCAUGUAAUAA [Mat - Exclusion - Trytophan A - D1] | 24.5 nM | 41.6 nM | 24.6 nM | 15.4 nM | 28.8 nM
AGAUUACAUGUUAUAAUACGGUAUACUGAUACCAGUGUUUCUAUUCACCCUUGGCAGCAGCAACAUGAGGAUCACCCAUGUAUUA [JR_SSTheophyA_Sub017] | 14.9 nM | 21.4 nM | – | – | 17.7 nM
UCUUGGUCCGCAAGGACCUUGAGUUGCGAUACCAGCACGGUAACGUGCCCUUGGCAGCGCACAUGAGGAUCACCCAUGUGGUGUU [#1 Exclusion - Theophylline A Attempt #16 (HarryS)] | 82.3 nM | 348 nM | – | – | 170 nM
CCUCCUUGUACGGCCGCCACUGCAUCUCUGGAUACUCCGAUAAUACAUGAGGAUCACCCAUGUUACAGGACCGGGUAUAUAUUAC [theeternabot_sameState_MS2_Trp_B_19] | 14.7 nM | 18.7 nM | 15.3 nM | – | –
UCGCCCAGGAUGGAAUCCUGGGAUAUGGAAGGAGCGCUGAUGCCAGCAGGUAGGUCGCCAACGGACAUGAGGAUCACCCAUGUAC [Same State - Arginine A (Freestyle 9)] | 17.7 nM | 28.8 nM | 21.2 nM | 19.1 nM | 18.6 nM
UGAGAUCCUCAUGAUACCAGUGUACUACAUGAGGAUCACCCAUGUAGCAACAUCUGUAGACACCCUUGGCAGCAUGAGACCACGU [Theo B SS t5] | 17.5 nM | 35.2 nM | – | – | 15.6 nM
